In US20120040915A1 (MAYO FOUNDATION FOR MEDICAL EDUCATION AND RESEARCH, published 2012):
Ends that are not written are not given here. * marks the point of attachment. Biotin = O=C1N[C@H]2[C@H](CS[C@H]2CCCCC(=O)*)N1

T1: PDZ domain of GIPC/synectin displayed on T7 phage (UniProt O14908 133-213, limits assumed)
T1 construct: domain: PDZ domain; also called GIPC/Synectin-PDZ T7 phage; GIPC-PDZ
T1 sequence (looked up): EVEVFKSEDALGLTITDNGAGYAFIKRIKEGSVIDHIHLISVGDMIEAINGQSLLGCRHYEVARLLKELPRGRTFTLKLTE

B1: N-terminal biotinylated peptide KKETEV (SEQ ID NO: 12) (peptide)
peptide: Biotin-KKETEV
notes: Comparison peptide in the phage ELISA
B2: N-terminal biotinylated peptide KKETAV (SEQ ID NO: 13) (peptide)
peptide: Biotin-KKETAV
notes: as for B1

Molecular target: T1, PDZ domain of GIPC/synectin displayed …
Assay: phage ELISA, biotinylated peptide on Neutravidin plate, GIPC-PDZ T7 phage
Method: Neutravidin plates (Pierce) were coated in duplicate with 100 μL of 10 μg/mL solutions of N-terminal biotinylated peptides ([…] (SEQ ID NO: 3) (from GAIP), KKETEV (SEQ ID NO: 12) and KKETAV (SEQ ID NO: 13) (two sequences that bind PDZ3 of PSD-95 (21), and allowed to incubate 1-2 h at 37° C. (or overnight at 4° C.) with mild shaking. The unbound peptides were washed away three times with TBS (0.5% Tween-20)-TBST buffer. Blocking buffer was prepared by diluting BSA […] in TBS stock two-fold in dH2O (for a 5% BSA final concentration) and free biotin (1 mM). Alternatively, SuperBlock in PBS buffer (Pierce) with free biotin (1 mM) was used. The blocking buffer was added to each well and allowed to incubate 30-60 min at 37° C. with mild shaking. The blocking buffer was washed away with TBST by inverting the plate and tapping off the excess with each of the 4-5 washes. The GIPC/Synectin-PDZ T7 phage to be screened with the biotinylated peptides were prepared by adding phage stock (1 mL, 20 μL) derived from one of the eight plaques (discussed above) to freshly harvested BLT5403 E. coli at OD ˜1. Once lysis was observed, the cell debris was spun down and phage lysate was used in a plaque assay (as discussed above) to determine the titer (phage titer added to wells 5×10⁹ pfu). […] The substrate was added to each well, and the development was measured at 405 nm after 30 min, 1 h and 2 h.

Binder | binding result
B1 | no binding
B2 | no binding
